T1: recombinant CYLD WT (GST tag cleaved) (human, UniProt Q9NQC7 1-956)
T1 sequence (looked up): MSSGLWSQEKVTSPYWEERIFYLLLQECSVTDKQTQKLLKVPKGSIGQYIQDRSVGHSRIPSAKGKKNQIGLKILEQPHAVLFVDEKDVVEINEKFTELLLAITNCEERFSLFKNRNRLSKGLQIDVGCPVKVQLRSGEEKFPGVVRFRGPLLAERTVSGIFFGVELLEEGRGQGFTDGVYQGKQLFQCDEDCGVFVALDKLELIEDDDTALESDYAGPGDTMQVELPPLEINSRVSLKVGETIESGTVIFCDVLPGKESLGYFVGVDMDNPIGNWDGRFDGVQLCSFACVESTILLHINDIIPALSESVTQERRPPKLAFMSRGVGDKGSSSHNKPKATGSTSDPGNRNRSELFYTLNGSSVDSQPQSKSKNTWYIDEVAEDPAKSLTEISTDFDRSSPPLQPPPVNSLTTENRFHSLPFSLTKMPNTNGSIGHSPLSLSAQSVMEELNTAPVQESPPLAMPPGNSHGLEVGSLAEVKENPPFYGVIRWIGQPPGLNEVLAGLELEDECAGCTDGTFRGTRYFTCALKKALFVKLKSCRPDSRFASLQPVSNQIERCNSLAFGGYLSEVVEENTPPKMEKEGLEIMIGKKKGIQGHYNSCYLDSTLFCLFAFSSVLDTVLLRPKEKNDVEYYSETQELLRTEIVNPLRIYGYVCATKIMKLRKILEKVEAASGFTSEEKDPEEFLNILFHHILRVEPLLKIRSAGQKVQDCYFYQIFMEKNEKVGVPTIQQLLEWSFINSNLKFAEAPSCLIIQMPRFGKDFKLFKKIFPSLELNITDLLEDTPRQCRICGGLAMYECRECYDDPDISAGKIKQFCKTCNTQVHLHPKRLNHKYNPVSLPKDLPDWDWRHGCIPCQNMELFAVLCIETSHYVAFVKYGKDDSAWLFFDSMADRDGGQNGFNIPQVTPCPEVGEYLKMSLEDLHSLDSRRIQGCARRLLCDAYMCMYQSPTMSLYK

T2: purified recombinant GST-tagged CYLD (human, UniProt Q9NQC7 1-956)
T2 sequence (looked up): T1 sequence (looked up)

B1: purified recombinant GST-tagged PARIS (natural protein)
chain: not shown
B2: recombinant PARIS (prey of the reciprocal GST pull-down) (natural protein)
chain: not shown

Tests used:
[1] = molecular target: T1, recombinant CYLD WT (GST tag cleaved); assay: pull-down
[2] = molecular target: T2, purified recombinant GST-tagged CYLD; assay: pull-down

| Binder | binding result [1] | binding result [2] |
| --- | --- | --- |
| B1 | binds |  |
| B2 |  | binds |

Source: paper PMC10938605 (Science Advances, 2022)
